Reference: the nanobody polyreactivity screen of Harvey et al. (2022)

Assay: yeast display, Sf9 membrane polyspecificity reagent, FACS + sequencing; frameworks hold sequencing errors
Summary of the method: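 Using colony PCR, genes from sorted yeast display clones were amplified, then sequenced on MiSeq at 2 × 250 and filtered by CDR length. The clones had been stained with 10% biotinylated, detergent-solubilized Sf9 membrane reagent for 1 hour at 4 °C and sorted by FACS into low and high (top ~1%) gates on anti-HA and streptavidin fluorescence. Polyreactivity labels come from the gate of origin.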

Sequence | polyreactivity (PSR sort gate)
QVQLVESGGGLVQAGGSLRLSCAASGSIFFANAMGWYRQAPGKERELVATITSGGSTTYADSVKGRFTISRDNAKNTVYLQMNSLKPEDTAVYYCNADYDYGWVFYSNYDYWGQGTQVTVSS | low polyreactivity
QVQLVESGGGLVQAGGSLRLSCAASGSIFFDYAMGWDRQAPGKERQLVAAISWTGGSTYYADSVKGRFTISRDNAKNTVYLQMNSLKPEDTAVYYCNARYYSYSSPYDYWGQGTQVTVSS | high polyreactivity
QVQLVESGGGLVQAGGSLRLSCAASGSIFFGNAMGWYRQAPGKERELVAAISSRGTSTYYADSVKGRFTISRDNAKNTVYLQMNSLKPEDTAVYYCNKRVRTFRGGPLAGYDYWGQGTQVTVSS | high polyreactivity
QVQLVESGGGLVQAGGSLRLSCAASGSIFFGNAMGWYRQAPGKERELVAAISTTGGSTYYADSVKGRFTISRDNAKNTVYLQMISLKPEDTAVYYCNADRATWWEQWWYDYWGQGTQVTVSS | low polyreactivity
QVQLVESGGGLVQAGGSLRLSCAASGSIFFHNAMGWYRQAPGKERELVAAITSSGGRTYYADSVKGRFTISRDNAKNTVYLQMNSLKPEDTAVYYCDASPYGFRRNYYWGQGTQVTVSS | high polyreactivity
QVQLVESGGGLVQAGGSLRLSCAASGSIFFPNAMGWYRQAPGKERELVAAITSTSTNYADSVKGRCTISRDNAKNTVYLQMNSLKPEDTAVYYCAADGEFRRAWYEGVYWGQGTQVTVSS | low polyreactivity
QVQLVESGGGLVQAGGSLRLSCAASGSIFFPYAMGWYRQAPGKEREFVAAITGSGTSTYYADSVKGRFTISRDNAKNTVYLQMNSLKPEDTAVYYCNAKRDRYFYTVKYDYWGQGTQVTVSS | low polyreactivity
QVQLVESGGGLVQAGGSLRLSCAASGSIFFRYAMGWYRQAPGKERELVARISWGGGRTYYADSVKGRFTISRDNAKNTVYLQMNSLKPEDTAVYYCNRAYWVNPGGFDYWGQGTQVTVSS | high polyreactivity
QVQLVESGGGLVQAGGSLRLSCAASGSIFFSYAMGWYRPAPGKERELVAAISSGGSTYYADSVKGRFTISRDNAKNTVYLPMNSLKPEDTAVFYCAARGYRLVPVDFYYWGQGTQVTVSS | low polyreactivity
QVQLVESGGGLVQAGGSLRLSCAASGSIFFSYAMGWYRQAPGKERELVAAITSSVDSTYYADSVKGRFTISRDNAKNTVYLQMNSLKPEDTAVYYCAARYRSGYYRYDYWGQGTQVTVSS | low polyreactivity
QVQLVESGGGLVQAGGSLRLSCAASGSIFFSYAMGWYRQAPGKERELVATITTSGGRTRYADSVKGRFTISRDNAKNTVYLQMNSLKPEDTAVYYCAVRGHFFTYGYWGQGTQVTVSS | high polyreactivity
QVQLVESGGGLVQAGGSLRLSCAASGSIFFTYTMGWYRQAPGKERELVAAISASGGSTYYADSVKGRFTISRDNAKNTVYLQMNSLKPEDTAVYYCNARRRTSFIMYYWGQGTQVTVSS | high polyreactivity
QVQLVESGGGLVQAGGSLRLSCAASGSIFFVYDMGWYRQAPGKERELVAGIRWSGGRTSYADSVKGRFTISRDNAKNTVYLQMNRLKPEDAAVYYCAADPRSYFTSEYWGQGTQVTVSS | high polyreactivity
QVQLVESGGGLVQAGGSLRLSCAASGSIFFYNAMGWYRQAPGKERELVAAITTRGGSTYYADSVKGRFTISRDNAKNTVYLQMNSLKPEDTAVYYCARSSRGKLDYWGQGTQVTVSS | low polyreactivity
QVQLVESGGGLVQAGGSLRLSCAASGSIFFYNAMGWYRQAPGKERELVAAITTRGGSTYYADSVKGRFTISRDNAMNTVYLQKNSLKPEDTAVYYCTADYYWTSLAMDSWGQGTQVTVSS | low polyreactivity
QVQLVESGGGLVQAGGSLRLSCAASGSIFFYNTMGWYRQAPGKERELVARISRSGGSTYYADSVKGRFTISRDNAKNTVYLQMNSLKPEDTAVYYCAARSAPWRYRYYKPYYYWGQGTQVTVSS | high polyreactivity

Sequence | polyreactivity (PSR sort gate)
QVQLVESGGGLVQAGGSLRLSCAASGSIFFYYAMGWYRQAPGKEREFVAHITSSDASTHYADSVKGRFTISRDNAKNTVYLQMNSLKPEDTAVYYCAADRYPGHRERDYWGQGTQVTVSS | low polyreactivity
QVQLVESGGGLVQAGGSLRLSCAASGSIFFYYAMGWYRQAPGKERELVAAITLSDGRTYYADSVKGRFTISRDNAKNTVYLQMNSLKPEDTAVYYCNADTGWYPTGARWHHYDYWGQGTQVTVSS | high polyreactivity
QVQLVESGGGLVQAGGSLRLSCAASGSIFGANAMGWYRQAPGKERELVAAISSNGDDTYADSVMGRFTISRDNAKNTVYLQMNSLKPEDTAVYYCAARAERVREYNYWGQGTQVTVSS | low polyreactivity
QVQLVESGGGLVQAGGSLRLSCAASGSIFGANVMGWYRQAPGKERELVAGITGSGGSTYADSVKGRFTISRDNAKNTVYFQMNSLKPEDTAVYYCNADTQFALVADFDYWGQGTQVTVSS | low polyreactivity
QVQLVESGGGLVQAGGSLRLSCAASGSIFGAYAMGWYRQAPGKERELVAAIDKSTGSTYYADSVKGRFTISRDNAKNTVYLQMNSLKPEDTAVYYCAKDWGVYQYSYDYWGQGTQVTVSS | low polyreactivity
QVQLVESGGGLVQAGGSLRLSCAASGSIFGAYAMGWYRQAPGKERELVAAISGSGTSTYYADSVKGRFTISRDNAKNTVYLQMNSLKPDDTAVYYCATAKLTWRSQGLDYWGQGTQVTVSS | low polyreactivity
QVQLVESGGGLVQAGGSLRLSCAASGSIFGAYAMGWYRQAPGKERELVAAISSSVDRTYYADSVKGRFTNSRDNAKNTVYLQMNCLKPEDTAVYYCAARWGTRDRTKYYYWGQGTQVTVSS | high polyreactivity
QVQLVESGGGLVQAGGSLRLSCAASGSIFGAYAMGWYRQAPGKERELVAVIRWGGGSTYADSVKGRFTISRDNAKNTVYLQMNRLKPEDTAVYYCNRDKSWADLYSHAYDYWGQGTQVTVSS | low polyreactivity
QVQLVESGGGLVQAGGSLRLSCAASGSIFGAYMGWYRQAPGTEREFVAAINRSGSSTYYADSVKGRFTISRDNAKNTVYLQMNSLKPEDTAVYYCAAKYPGGETYPFDYWGQGTQVTVSS | low polyreactivity
QVQLVESGGGLVQAGGSLRLSCAASGSIFGAYTMGGYRQAPGKERELVAAISIGGSTNYADSVKGRFTISRDYAKNTVYLQMNSLKPEDSAVYYCNAEPDLEDWWWAIGLYDYWGQGTQVTVSS | high polyreactivity
QVQLVESGGGLVQAGGSLRLSCAASGSIFGAYTMGWYRPAPGKERELVAALSIGGSTNYADSVKGRFTISRDNAKNTVYLQMNSLKPEDTAVYYCNAEPHREDWWWAIGLYDYWGQGTQVTVSS | high polyreactivity
QVQLVESGGGLVQAGGSLRLSCAASGSIFGAYTMGWYRQAPGKERELVAAISRSGSTYYADSVKGRFTISRDNAKNTVYLQMKSLKPEDTAVYYCYGVGYSGLRRYYKYDYWGQGTQVTVSS | high polyreactivity
QVQLVESGGGLVQAGGSLRLSCAASGSIFGAYVMGWYRQAPGKERELVAAISRSGASTYYADSVKGRFTISRDNAKNTVYLQMNSLKPEDTAVYYCAARDRQRVSYCYWGQGTQVTVSS | high polyreactivity
QVQLVESGGGLVQAGGSLRLSCAASGSIFGAYVMGWYRQAPGKERELVAAITRRGGSTYYADSVKGRFTISRDNAKNTVYLQMNSLKPEDTAVYYCAARRGAGDGYWGQGTQVTVSS | high polyreactivity
QVQLVESGGGLVQAGGSLRLSCAASGSIFGDNAMAWYRQAPGKERELVARISSGGNTYYADSVKGRFTISRDNAKNTVYLQMNSLKPEDTAVYYCAAAIKVRYKKFPYYYWGQGTQVTVSS | high polyreactivity
QVQLVESGGGLVQAGGSLRLSCAASGSIFGDNAMGWYRQAPGKERELVAAISIVGSTSYADSVKGRFTISRDNAKNTVYLQMNSLKPEDTAVYYCAADTFYSYYDMDYWGQGTQVTVSS | low polyreactivity
